Our source for the Median Channel of Fluorescence of HLA-A2 Expression on T2 (median channel of fluorescence) values is US20060045884A1, “Vaccines for autoimmune and infectious disease” (Board of Regents, priority 2004, published 2006).

The assay concerns the target HLA-A2.1 (HLA-A*0201) with β2-microglobulin on the surface of T2 cells (human).

B1: Influenza B nucleoprotein peptide (aa 85-94), P04665 85-94 (peptide)
peptide: KLGEFYNQMM
modifications: not checked
In turn, B1 came in with a Median Channel of Fluorescence of HLA-A2 Expression on T2 (median channel of fluorescence) of 194.
